B1: Cdc45 (subunit of CMG) (natural protein, yeast)
chain: MYYGISQFSEAYNKILRNSSSHSSCQLVIFVSCLNIDALCATKMLSLLFKKQLVQSQIVPIFGYSELRRHYSQLDDNINSLLLVGFGGVIDLEAFLEIDPQEYVIDTDEKSGEQSFRRDIYVLDAHRPWNLDNIFGSQIIQCFDDGTVDDTLGEQKEAYYKLLELDEESGDDELSGDENDNNGGDDEATDADEVTDEDEEDEDETISNKRGNSSIGPNDLSKRKQRKKQIHEYEGVLEEYYSQGTTVVNSISAQIYSLLSAIGETNLSNLWLNILGTTSLDIAYAQVYNRLYPLLQDEVKRLTPSSRNSVKTPDTLTLNIQPDYYLFLLRHSSLYDSFYYSNYVNAKLSLWNENGKKRLHKMFARMGIPLSTAQETWLYMDHSIKRELGIIFDKNLDRYGLQDIIRDGFVRTLGYRGSISASEFVEALTALLEVGNSTDKDSVKINNDNNDDTDGEEEEDNSAQKLTNLRKRWVSNFWLSWDALDDRKVELLNRGIQLAQDLQRAIFNTGVAILEKKLIKHLRIYRLCVLQDGPDLDLYRNPLTLLRLGNWLIECCAESEDKQLLPMVLASIDENTDTYLVAGLTPRYPRGLDTIHTKKPILNNFSMAFQQITAETDAKVRIDNFESSIIEIRREDLSPFLEKLTLSGLL
notes: Cdc45, yeast; Chain of m1 as it stands in the replisome structure; source: yeast strain yJCZ2, purified as part of CMG (anti-FLAG M2 resin, Mono Q, Superose 6)
B2: Mcm5 (subunit of CMG) (natural protein, yeast)
chain: MSFDRPEIYSAPVLQGESPNDDDNTEIIKSFKNFILEFRLDSQFIYRDQLRNNILVKNYSLTVNMEHLIGYNEDIYKKLSDEPSDIIPLFETAITQVAKRISILSRAQSANNNDKDPENTSMDTDSLLLNSLPTFQLILNSNANQIPLRDLDSEHVSKIVRLSGIIISTSVLSSRATYLSIMCRNCRHTTSITINNFNSITGNTVSLPRSCLSTIESESSMANESNIGDESTKKNCGPDPYIIIHESSKFIDQQFLKLQEIPELVPVGEMPRNLTMTCDRYLTNKVIPGTRVTIVGIYSIYNSKNGAGSGRSGGGNGGSGVAIRTPYIKILGIQSDVETSSIWNSVTMFTEEEEEEFLQLSRNPKLYEILTNSIAPSIFGNEDIKKAIVCLLMGGSKKILPDGMRLRGDINVLLLGDPGTAKSQLLKFVEKVSPIAVYTSGKGSSAAGLTASVQRDPMTREFYLEGGAMVLADGGVVCIDEFDKMRDEDRVAIHEAMEQQTISIAKAGITTVLNSRTSVLAAANPIYGRYDDLKSPGDNIDFQTTILSRFDMIFIVKDDHNEERDISIANHVINIHTGNANAMQNQQEENGSEISIEKMKRYITYCRLKCAPRLSPQAAEKLSSNFVTIRKQLLINELESTERSSIPITIRQLEAIIRITESLAKLELSPIAQERHVDEAIRLFQASTMDAASQDPIGGLNQASGTSLSEIRRFEQELKRRLPIGWSTSYQTLRREFVDTHRFSQLALDKALYALEKHETIQLRHQGQNIYRSGV
notes: Mcm5, yeast; Chain of m1 as it stands in the replisome structure; also called Mcm5-CTD; Mcm5-WHD; source: yeast strain yJCZ2, purified as part of CMG (anti-FLAG M2 resin, Mono Q, Superose 6)
B3: Mcm2 (subunit of CMG) (natural protein, yeast)
chain: MSDNRRRRREEDDSDSENELPPSSPQQHFRGGMNPVSSPIGSPDMINPEGDDNEVDDVPDIDEVEEQMNEVDLMDDNMYEDYAADHNRDRYDPDQVDDREQQELSLSERRRIDAQLNERDRLLRNVAYIDDEDEEQEGAAQLDEMGLPVQRRRRRRQYEDLENSDDDLLSDMDIDPLREELTLESLSNVKANSYSEWITQPNVSRTIARELKSFLLEYTDETGRSVYGARIRTLGEMNSESLEVNYRHLAESKAILALFLAKCPEEMLKIFDLVAMEATELHYPDYARIHSEIHVRISDFPTIYSLRELRESNLSSLVRVTGVVTRRTGVFPQLKYVKFNCLKCGSILGPFFQDSNEEIRISFCTNCKSKGPFRVNGEKTVYRNYQRVTLQEAPGTVPPGRLPRHREVILLADLVDVSKPGEEVEVTGIYKNNYDGNLNAKNGFPVFATIIEANSIKRREGNTANEGEEGLDVFSWTEEEEREFRKISRDRGIIDKIISSMAPSIYGHRDIKTAVACSLFGGVPKNVNGKHSIRGDINVLLLGDPGTAKSQILKYVEKTAHRAVFATGQGASAVGLTASVRKDPITKEWTLEGGALVLADKGVCLIDEFDKMNDQDRTSIHEAMEQQSISISKAGIVTTLQARCSIIAAANPNGGRYNSTLPLAQNVSLTEPILSRFDILCVVRDLVDEEADERLATFVVDSHVRSHPENDEDREGEELKNNGESAIEQGEDEINEQLNARQRRLQRQRKKEEEISPIPQELLMKYIHYARTKIYPKLHQMDMDKVSRVYADLRRESISTGSFPITVRHLESILRIAESFAKMRLSEFVSSYDLDRAIKVVVDSFVDAQKVSVRRQLRRSFAIYTLGH
notes: Mcm2, yeast; Chain of m1 as it stands in the replisome structure; source: yeast strain yJCZ2, purified as part of CMG (anti-FLAG M2 resin, Mono Q, Superose 6)

These binders were tested against T1, Pol2 (subunit of Polε in the replisome) (yeast, UniProt P21951 1-2222) (assay: cryo-EM structure; replisome assembled at room temperature from 0.7 uM CMG, forked DNA and ATPγS, then 1.5 molar excess of Polε, Ctf4, Tof1-Csm3; 100 mM KCl, 25 mM HEPES pH 7.6, 4 mM MgCl2, 4 mM ATPγS; 10-30% glycerol gradient with glutaraldehyde fixation; States I-VI by 3D classification). Details: both partners purified.
T1 construct: Pol2, yeast, catalytic subunit of Polε; Chain of m2 as it stands in the replisome structure; the catalytic NTD is flexible and not resolved; also called Pol2-CTD; Pol2-ZF2; source: yeast strain yAJ2, purified as part of Polε (calmodulin resin, TEV elution, Mono Q, Superose 6); not shown: CBP, N-terminal, cleaved
T1 sequence (P21951 whole entry): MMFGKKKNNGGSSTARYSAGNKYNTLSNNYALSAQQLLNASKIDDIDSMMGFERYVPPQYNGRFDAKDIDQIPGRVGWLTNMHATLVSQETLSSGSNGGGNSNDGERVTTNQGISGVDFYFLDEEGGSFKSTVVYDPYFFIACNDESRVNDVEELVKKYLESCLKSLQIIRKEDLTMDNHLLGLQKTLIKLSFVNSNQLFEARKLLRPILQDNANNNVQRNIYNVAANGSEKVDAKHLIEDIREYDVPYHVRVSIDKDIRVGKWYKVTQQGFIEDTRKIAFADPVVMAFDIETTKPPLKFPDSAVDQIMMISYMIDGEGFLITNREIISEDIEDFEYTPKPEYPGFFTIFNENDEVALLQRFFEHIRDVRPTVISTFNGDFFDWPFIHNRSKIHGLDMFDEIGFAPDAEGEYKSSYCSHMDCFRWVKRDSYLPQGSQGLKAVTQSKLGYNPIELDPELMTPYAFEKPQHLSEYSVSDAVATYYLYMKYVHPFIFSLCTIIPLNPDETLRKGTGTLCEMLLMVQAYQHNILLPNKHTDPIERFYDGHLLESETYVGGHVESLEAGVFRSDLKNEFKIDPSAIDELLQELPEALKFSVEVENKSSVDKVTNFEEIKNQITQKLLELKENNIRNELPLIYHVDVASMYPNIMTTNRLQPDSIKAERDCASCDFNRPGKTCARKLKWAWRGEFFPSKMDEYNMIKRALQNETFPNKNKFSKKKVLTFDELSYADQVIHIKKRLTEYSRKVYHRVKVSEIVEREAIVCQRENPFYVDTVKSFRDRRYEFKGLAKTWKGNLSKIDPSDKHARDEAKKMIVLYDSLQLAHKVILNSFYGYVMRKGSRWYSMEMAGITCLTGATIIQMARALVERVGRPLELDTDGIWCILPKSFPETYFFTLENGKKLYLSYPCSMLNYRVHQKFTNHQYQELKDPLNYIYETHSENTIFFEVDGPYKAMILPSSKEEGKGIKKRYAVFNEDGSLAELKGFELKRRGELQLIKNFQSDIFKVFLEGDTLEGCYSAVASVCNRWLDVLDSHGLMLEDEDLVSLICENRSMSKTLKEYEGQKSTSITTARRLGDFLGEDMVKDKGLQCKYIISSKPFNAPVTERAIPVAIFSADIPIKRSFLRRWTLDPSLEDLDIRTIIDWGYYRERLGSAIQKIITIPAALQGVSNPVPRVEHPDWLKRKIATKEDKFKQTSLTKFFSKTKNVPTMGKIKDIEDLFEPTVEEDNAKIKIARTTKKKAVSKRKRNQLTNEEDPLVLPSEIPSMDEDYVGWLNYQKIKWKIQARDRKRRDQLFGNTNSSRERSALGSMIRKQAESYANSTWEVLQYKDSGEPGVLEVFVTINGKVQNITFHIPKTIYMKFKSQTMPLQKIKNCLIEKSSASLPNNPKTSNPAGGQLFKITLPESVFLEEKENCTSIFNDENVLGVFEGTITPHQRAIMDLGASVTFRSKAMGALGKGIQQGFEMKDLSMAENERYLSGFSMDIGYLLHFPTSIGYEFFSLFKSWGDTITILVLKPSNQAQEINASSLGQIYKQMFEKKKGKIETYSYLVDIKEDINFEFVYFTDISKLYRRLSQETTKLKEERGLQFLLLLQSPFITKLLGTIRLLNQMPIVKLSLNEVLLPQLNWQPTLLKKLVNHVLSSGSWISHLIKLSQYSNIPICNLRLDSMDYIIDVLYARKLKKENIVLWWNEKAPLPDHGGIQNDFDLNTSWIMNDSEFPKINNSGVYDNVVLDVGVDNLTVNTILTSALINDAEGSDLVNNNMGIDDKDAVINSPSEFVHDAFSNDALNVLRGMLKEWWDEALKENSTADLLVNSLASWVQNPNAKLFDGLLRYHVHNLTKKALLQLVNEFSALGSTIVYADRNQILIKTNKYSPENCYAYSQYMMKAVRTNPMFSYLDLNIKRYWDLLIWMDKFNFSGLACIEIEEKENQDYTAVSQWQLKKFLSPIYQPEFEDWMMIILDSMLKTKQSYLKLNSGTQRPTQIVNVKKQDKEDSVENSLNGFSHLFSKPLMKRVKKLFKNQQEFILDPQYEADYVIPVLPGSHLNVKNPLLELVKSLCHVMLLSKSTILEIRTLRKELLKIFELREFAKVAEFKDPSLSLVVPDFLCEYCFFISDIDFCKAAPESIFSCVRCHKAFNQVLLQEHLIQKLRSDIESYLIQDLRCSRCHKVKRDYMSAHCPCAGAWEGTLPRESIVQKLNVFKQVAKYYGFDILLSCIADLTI

Binding result, binds:
B1
B2
B3

Source: paper PMC10511561, “Synergism between CMG helicase and leading strand DNA polymerase at replication fork” (Nature Communications, 2023)
